Bridges are numbered along the chain shown (N, C = ends). Where no end group is shown, it is not given here. [ ]: non-standard residue; d: D form. Lac = C[C@H](O)C(=O)O
Key:
[1] = target: T1, Neutravidin (Gallus gallus, UniProt P02701); assay: Chromatographic comparison of cyclic depsipeptide and cyclic peptide resins on column; conditions: Toyopearl resin column, binding PBS pH 7.4, elution 0.2M Glycine pH 2.5, absorbance 280 nm
Description: Thirty-five milligrams of cyclo[Lac-A-DRASPY-E]-Toyopearl resin and cyclo[A-A-DRASPY-E]-Toyopearl (SEQ ID NO:21, 29) resin were packed in a 30 mm×2.1 mm I.D. Microbore column (0.1 mL) and swollen with 20% v/v methanol. One hundred microliters of feed sample, namely Neutravidin 5 mg/mL in PBS pH 7.4, was loaded onto the column at a flow rate of 0.05 mL/min (87 cm/h). The column was washed with 2 mL of equilibration buffer at a flow rate of 0.2 mL/min (348 cm/h). Elution was then performed with 4 mL of 0.2M glycine buffer pH 2.5 at the flow rate of 0.4 mL/min (696 cm/h). Cleaning and regeneration were performed by 4 mL of 0.85% phosphoric acid. The effluent was monitored by absorbance at 280 nm. Fractions were collected and concentrated five times by centrifugation at 4° C., 20817×g for 30 min using an Amicon® Ultra centrifugal filter (3000 MWCO, Ultracel®, Millipore, Billerica, Mass., USA).
Cyclic depsipeptides are present in nature as very selective ligands and enzyme substrates. In many cases, however, the depside (ester) bond is found to play an active role in their biological activity and the homodetic cyclic peptide version of the same sequence can partially or completely loose the target affinity. […]

[2] = target: T1, Neutravidin; assay: Screening simulation by the Mondorf-Carbonell radiological procedure with 14C-radiolabeled Neutravidin; assay type: binding; conditions: 10 mg of 50:50 mix of ligand resin and negative control resin, PBS, 5% 14C-radiolabeled Neutravidin, washed with PBS 0.2M NaCl 0.1% Tween 20, film five days
Excerpt: A solid phase library of reversible cyclic peptides synthesized as explained in sections 5.2 and 5.3 can be screened for on-bead ligands that bind to a target biological. […] The selected beads are then subjected to the alkaline treatment reported in section 5.7. See Mondorf and Carbonell 1998.
Neutravidin was radiolabeled according to the procedure reported by Mondorf et al. using ^14C formaldehyde by reductive amination. The prospected extent of radiolabeling was 5%. Mondorf Carbonell 1998.
Two aliquots of cyclo[Lac-A-DRASPY-E]-HMBA-ChemMatrix resin and cyclo[Lac-A-VVWVV-E]-HMBA-ChemMatrix (SEQ ID NO:20-21) resin and were mixed in a 50:50 proportion. 10 mg of the resin mix was swollen in 20% methanol in water for 30 min and then rinsed with PBS, pH 7.4 (3×5 min). The resin slur was then mixed with 200 μl of 5 mg/mL ^14C-labelled Neutravidin. After 2 hrs of incubation the supernatant was decanted and the resin was washed with PBS buffer containing 0.2M NaCl and 0.1% (w/v) Tween 20 until the radioactivity reached the baseline level. […]
(§1) The screening procedure followed the method set forth in sections 5.5 and 6.5. […] A volume of 250 mL of washing solution was necessary in order for the radioactivity to reach the baseline level. […] In both cases, the difference between the levels of radioactivity carried by the resin was enough to discriminate the ligand resin beads from the negative control beads.

[3] = target: T2, Neutravidin (UniProt P02701 25-152); assay: radiological on-bead screening (autoradiography of beads in agarose)
T2 construct: In the bead screening it was radiolabelled with 14C formaldehyde by reductive amination (prospected extent 5%); In the column runs it was unlabelled, 5 mg/mL in PBS pH 7.4; also called 14C-labelled Neutravidin; target protein
Description: Two aliquots of cyclo[Lac-A-DRASPY-E]-HMBA-ChemMatrix resin and cyclo[Lac-A-VVWVV-E]-HMBA-ChemMatrix (SEQ ID NO:20-21) resin and were mixed in a 50:50 proportion. 10 mg of the resin mix was swollen in 20% methanol in water for 30 min and then rinsed with PBS, pH 7.4 (3×5 min). The resin slur was then mixed with 200 μl of 5 mg/mL ¹⁴C-labelled Neutravidin. After 2 hrs of incubation the supernatant was decanted and the resin was washed with PBS buffer containing 0.2M NaCl and 0.1% (w/v) Tween 20 until the radioactivity reached the baseline level. The washed resin was then mixed with 20 mL of 1% low melting agarose solution. The mixture was swirled to form a uniform suspension and then the slurry was poured on 16×18 cm gelbond film to form a monolayer of beads. This gel was air-dried overnight in a hood. The dried agarose gel was then exposed to photographic film for 5 days at room temperature. The photographic film was then developed, the dark spot located on the film and the corresponding beads selected.
as §1

T1 sequence (P02701 25-152): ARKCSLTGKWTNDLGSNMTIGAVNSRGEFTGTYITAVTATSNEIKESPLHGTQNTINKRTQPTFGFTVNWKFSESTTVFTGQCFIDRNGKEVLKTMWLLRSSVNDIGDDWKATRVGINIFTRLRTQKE
T2 sequence (P02701 25-152): as above

Molecule | binding chromatogram, cyclic depsipeptide vs cyclic peptide version of the same ligand sequence (FIG. 35) [1] | amount of radiolabeled target protein bound by resin beads (dark spot on developed radiographic film) [2] | further results
cyclo[A-A-DRASPY-E] (AADRASPYE-{Toyopearl AF‑Amino‑650M resin}; lactam N-9; not fully specified; printed as cyclo[A-A-DRASPY-E]) [cyclo[A-A-DRASPY-E]-Toyopearl, homodetic cyclic peptide analogue of DRASPY depsipeptide on Toyopearl resin] | no difference | – | –
cyclo[Lac-A-DRASPY-E] [cyclo[Lac-A-DRASPY-E]-HMBA-ChemMatrix] | – | bound a sufficient amount of radiolabeled target protein to impress a dark spot | –
cyclo[Lac-A-DRASPY-E] [cyclo[Lac-A-DRASPY-E]-Toyopearl] | no difference | – | –
cyclo[Lac-A-VVWVV-E] ([Lac]AVVWVVE; bridge N-8; not fully specified (C-terminus, bridges); printed as cyclo[Lac-A-VVWVV-E]) [cyclo[Lac-A-VVWVV-E]-HMBA-ChemMatrix] | – | bound a sufficient amount of radiolabeled target protein to impress a dark spot | –
[Lac]AVVWVVE (bridge N-8; not fully specified (C-terminus, bridges); printed as cyclo[Lac-A-VVWVV-E], also called cyclo[Lac-A-VVWVV-E]-HMBA-ChemMatrix; negative control resin) [cyclo[Lac-A-VVWVV-E]] | – | – | binding result [3]: no binding

Source: patent US20130310265A1, “METHODS OF PREPARING CYCLIC PEPTIDES AND USES THEREOF” (NORTH CAROLINA STATE UNIVERSITY, priority 2012, published 2013)
